Reference: patent US20050049403A1 (CAMBRIDGE ANTIBODY TECHNOLOGY, published 2005)

What was measured:
recombinant human TGFβ2 [1] = molecular target: T1, recombinant human TGFβ2 (human, UniProt P61812 303-414); experiment: cell-based or functional assay
T1 sequence (looked up): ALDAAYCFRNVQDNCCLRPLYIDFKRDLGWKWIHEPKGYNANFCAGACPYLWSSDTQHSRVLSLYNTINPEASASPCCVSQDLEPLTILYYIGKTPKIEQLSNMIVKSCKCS

recombinant human TGFβ2 [2] = molecular target: T1, recombinant human TGFβ2; experiment: A549 cell radioreceptor assay (nM IgG)
Description: (§1) Aliqouts of ¹²⁵I-TGFβ1 or TGFβ2 (70-90 TBq/mmol; Amersham International) at 20 pM are preincubated with antibody in binding medium at room temperature for 1 h. Duplicate samples of 0.5 ml of TGFβ/antibody mixtures are then added to the cell monlayers and are incubated at 37° C. for 1-2 h. Control wells contain TGFβ only. Unbound TGFβ is removed by washing 4 times with Hank's balanced salt solution containing 0.1% BSA. Cells are solubilised in 0.8 ml 25 mM Tris HCl pH 7.5, 10% glycerol, 1% Triton X-100 at room temperature for 20 min. The contents of each well are removed and ¹²⁵I measured in a gamma counter.
The ability of 6B1 IgG4 to inhibit binding of TGFβ isoforms to receptors was measured in a radioreceptor assay as described in example 4.

recombinant human TGFβ1 [3] = molecular target: T2, recombinant human TGFβ1 (human, UniProt P01137 279-390); experiment: cell-based or functional assay
T2 sequence (P01137 279-390 limits assumed): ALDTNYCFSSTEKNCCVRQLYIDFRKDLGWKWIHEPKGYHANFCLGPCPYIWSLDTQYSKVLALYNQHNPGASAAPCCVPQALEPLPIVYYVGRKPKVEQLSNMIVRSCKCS

TGFβ3 [4] = molecular target: T3, TGFβ3 (UniProt P10600 301-412); experiment: cell-based or functional assay
T3 sequence (looked up): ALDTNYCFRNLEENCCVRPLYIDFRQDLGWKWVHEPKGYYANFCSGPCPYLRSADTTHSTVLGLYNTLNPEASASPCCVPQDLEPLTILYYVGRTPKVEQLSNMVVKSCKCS

recombinant human TGFβ1 [5] = molecular target: T2, recombinant human TGFβ1; experiment: A549 cell radioreceptor assay (nM IgG)
TGFβ3 [6] = molecular target: T3, TGFβ3; experiment: A549 cell radioreceptor assay (nM IgG)
recombinant human TGFβ2 [7] = molecular target: T1, recombinant human TGFβ2; experiment: cell-based or functional assay; remark: listed apart in the source
recombinant human TGFβ2 [8] = molecular target: T1, recombinant human TGFβ2; experiment: BIAcore 2000, antigen immobilised, antibody as analyte
Description: The immobilisation of ligand is automated by the BIACore 2000 machine, and all steps are carried out in the autosampler or in the flowcell, on the dextran surface of the chip. The buffer used throughout the immobilisation procedure, and the analysis of samples is Hepes-buffered saline (HBS) with a surfactant (Pharmacia Biosensor). The chips (Pharmacia, CM5), have dextran coating on a thin layer of gold. NHS at 100 mM and EDC at 400 mM are mixed by the autosampler, and then a fixed volume is injected over the flowcell surface. This is followed by an injection of antigen in a suitable buffer. In the case of TGFβ, a surface of the correct density was given by using 25-30 μg/ml solution of TGFβ2 (AMS) OR TGFβ3 (R & D systems) in 10 mM acetate. After injection of the ligand, the chip is blocked using 1M ethanolamine. The total amount of TGFβ bound was assessed from the total increase in resonance units over this period.
(§2) To determine the kinetic parameters, a series of dilutions of the antibody samples was made in HBS from about 500 μg/ml down to less than 1 μg/ml, usually through doubling dilutions. After the antibody has been injected over the antigen surface, the surface is washed with HBS, then regenerated by stripping off the bound antibody with a pulse of 100 mM HCl. At the higher concentrations of antibody the antigen on the chip surface is saturated, and the off rate is determined on washing with buffer in the dissociation phase. For determination of the on-rate, lower concentrations of antibody are used, giving a linear binding phase in the sensorgram, allowing kₒₙ determination.
(§3) 6B1 IgG4 was purified from the GS/NS0 cell line of Example 10 as in Example 2. 6B1 single chain Fv was expressed intracellularly in E. coli, refolded in vitro (using the methodology of WO94/18227), and purified to give a homogeneous product. The values of kₒₙ and koff were determined for 6B1 IgG4 for binding to both TGFβ2 and TGFβ3, and for the single-chain Fv 6B1 for binding to TGFβ2. The dissociation constant was calculated by dividing koff by kₒₙ.

recombinant human TGFβ2 [9] = molecular target: T1, recombinant human TGFβ2; experiment: BIAcore 2000, koff divided by kon
Description: as §2, §3

recombinant human TGFβ2 [10] = molecular target: T1, recombinant human TGFβ2; experiment: BIACore, scFv
Description: (§4) The off-rates for binding to TGFβ1 or TGFβ2 of the single chain Fv fragments described in this example were determined as described by Karlsson et al (R. Karlsson et al, J. Immunol. Methods 145, 229-240, 1991). The results obtained are shown in Table 2, together with dissociation constants for those which have been determined.

recombinant human TGFβ2 [11] = molecular target: T1, recombinant human TGFβ2; experiment: radioreceptor assay, inhibition of 125I-TGFβ2 binding to A549 cells; concentration of antibody combining sites
Description: (§5) Cells are seeded at 1-2×10^5 cells/ml/well into the wells of 24-well cluster plates and grown for 24 h in serum-free DMEM. Cell monlayers are washed twice with serum-free DMEM and 0.5 ml binding medium (DMEM/Hams F12 (Sigma D-6421) containing 0.1% (v/v) BSA added to each well.
as §1

hen egg lysozyme = hen egg lysozyme (hen, UniProt P00698 19-147); experiment: ELISA, antigen coated at 10 µg/ml, anti-human Fc alkaline phosphatase conjugate, OD405 nm [b]
hen egg lysozyme, sequence (P00698 19-147): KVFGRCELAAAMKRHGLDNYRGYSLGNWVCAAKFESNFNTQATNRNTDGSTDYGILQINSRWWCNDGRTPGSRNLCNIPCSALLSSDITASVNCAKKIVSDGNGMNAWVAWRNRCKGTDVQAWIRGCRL
Description: (§6) For both FIG. 13(a) and FIG. 13(b), antigens 1 to 15 were used for coating the plate at a concentration of 10 μg/ml in PBS. The TGFbetas were coated at 0.2 μg/ml in PBS. Coating was performed at 4° C. overnight. […] of each antigen was used per well and duplicates of each antigen for each IgG to be tested. IgG samples were incubated with the coated antigens at 37° C. for 2 hours after blocking with 2%. marvel-PBS. The labelled second antibody was a mouse anti-human Fc1 alkaline phosphatase conjugated and the substrate used to detect bound second antibody was PNPP at 1 mg/ml with the absorbance read at 405 nm.

[12] = molecular target: oxazolone-bovine serum albumin (bovine, UniProt P02769 25-607, oxazolone hapten coupled, sites not stated); experiment: as above
oxazolone-bovine serum albumin, sequence (P02769 25-607 limits assumed): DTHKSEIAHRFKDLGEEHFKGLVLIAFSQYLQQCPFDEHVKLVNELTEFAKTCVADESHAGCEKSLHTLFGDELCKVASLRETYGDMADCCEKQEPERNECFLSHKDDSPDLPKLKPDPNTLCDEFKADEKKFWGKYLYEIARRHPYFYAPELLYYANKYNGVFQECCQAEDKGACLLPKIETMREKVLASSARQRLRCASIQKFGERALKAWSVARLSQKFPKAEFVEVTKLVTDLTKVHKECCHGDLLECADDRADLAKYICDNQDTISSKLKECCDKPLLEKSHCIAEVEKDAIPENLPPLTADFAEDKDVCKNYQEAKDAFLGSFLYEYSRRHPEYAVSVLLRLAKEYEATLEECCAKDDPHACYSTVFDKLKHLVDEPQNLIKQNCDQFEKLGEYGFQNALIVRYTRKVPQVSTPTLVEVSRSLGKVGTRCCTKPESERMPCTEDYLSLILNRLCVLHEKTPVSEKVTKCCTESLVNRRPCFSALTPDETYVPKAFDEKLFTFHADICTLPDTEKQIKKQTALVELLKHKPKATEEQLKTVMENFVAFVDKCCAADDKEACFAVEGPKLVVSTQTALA
Description: as §6

human insulin = human insulin (human, UniProt P01308 25-54; P01308 90-110, limits assumed); experiment: as above
human insulin, sequence (P01308 25-54 limits assumed, chain 1 of 2): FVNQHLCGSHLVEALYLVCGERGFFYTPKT
human insulin, sequence (P01308 90-110 limits assumed, chain 2 of 2): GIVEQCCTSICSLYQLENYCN
Description: as §6

bovine serum albumin = molecular target: T4, bovine serum albumin (bovine, UniProt P02769 25-607); experiment: as above
T4 construct: also called BSA
T4 sequence (P02769 25-607 limits assumed): as the sequence (P02769 25-607 limits assumed) above
Description: as §6

human serum albumin = human serum albumin (human, UniProt P02768 25-609); experiment: as above
human serum albumin, sequence (P02768 25-609 limits assumed): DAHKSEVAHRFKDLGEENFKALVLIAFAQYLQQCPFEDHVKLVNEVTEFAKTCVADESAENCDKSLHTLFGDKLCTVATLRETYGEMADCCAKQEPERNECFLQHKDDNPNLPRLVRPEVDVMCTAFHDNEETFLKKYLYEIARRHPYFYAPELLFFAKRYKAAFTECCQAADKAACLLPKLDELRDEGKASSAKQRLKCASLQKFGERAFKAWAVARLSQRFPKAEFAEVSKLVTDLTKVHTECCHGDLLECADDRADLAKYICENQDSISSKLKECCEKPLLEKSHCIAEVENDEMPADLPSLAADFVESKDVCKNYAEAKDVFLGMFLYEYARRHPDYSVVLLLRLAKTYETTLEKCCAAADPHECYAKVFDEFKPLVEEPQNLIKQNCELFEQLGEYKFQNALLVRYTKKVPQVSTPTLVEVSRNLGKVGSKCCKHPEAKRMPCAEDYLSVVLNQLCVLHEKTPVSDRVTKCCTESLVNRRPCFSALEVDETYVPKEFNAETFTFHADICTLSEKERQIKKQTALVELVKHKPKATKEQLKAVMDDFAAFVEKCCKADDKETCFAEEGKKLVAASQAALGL
Description: as §6

human lymphotoxin (TNFβ) = molecular target: T5, human lymphotoxin (TNFβ) (human, UniProt P01374 35-205, limits assumed); experiment: as above
T5 sequence (looked up): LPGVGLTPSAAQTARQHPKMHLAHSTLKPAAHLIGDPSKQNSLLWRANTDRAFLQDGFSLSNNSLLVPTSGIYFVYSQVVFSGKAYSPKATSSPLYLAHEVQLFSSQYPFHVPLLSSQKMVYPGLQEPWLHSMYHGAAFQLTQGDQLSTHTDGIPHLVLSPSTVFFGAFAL
Description: as §6

ovalbumin = molecular target: T6, ovalbumin (UniProt P01012 2-386); experiment: as above
T6 sequence (looked up): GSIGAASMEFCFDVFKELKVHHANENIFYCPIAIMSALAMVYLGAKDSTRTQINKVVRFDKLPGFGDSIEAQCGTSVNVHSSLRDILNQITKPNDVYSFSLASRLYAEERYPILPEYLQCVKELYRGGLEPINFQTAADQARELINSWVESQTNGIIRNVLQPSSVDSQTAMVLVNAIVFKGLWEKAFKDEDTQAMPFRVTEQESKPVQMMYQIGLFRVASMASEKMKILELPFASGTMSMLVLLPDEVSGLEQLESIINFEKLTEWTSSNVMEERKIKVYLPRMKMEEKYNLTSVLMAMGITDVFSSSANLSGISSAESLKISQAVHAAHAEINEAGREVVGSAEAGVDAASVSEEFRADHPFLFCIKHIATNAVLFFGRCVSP
Description: as §6

[13] = molecular target: T7, chicken egg white trypsin inhibitor (chicken, UniProt P01005 25-210); experiment: as above
T7 sequence (looked up): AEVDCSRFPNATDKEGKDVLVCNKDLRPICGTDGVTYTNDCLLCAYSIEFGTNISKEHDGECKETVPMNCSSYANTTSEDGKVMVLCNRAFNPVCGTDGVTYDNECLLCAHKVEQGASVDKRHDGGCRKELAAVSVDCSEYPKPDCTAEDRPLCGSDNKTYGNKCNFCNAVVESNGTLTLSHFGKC
Description: as §6

recombinant human TGFβ1 [14] = molecular target: T2, recombinant human TGFβ1; experiment: radioreceptor assay, inhibition of 125I-TGFβ1 binding to A549 cells, Example 9
recombinant human TGFβ1 [15] = molecular target: T2, recombinant human TGFβ1; experiment: radioreceptor assay, inhibition of 125I-TGFβ1 binding to A549 cells; concentration of antibody combining sites
Description: as §5, §1

recombinant human TGFβ1 [16] = molecular target: T2, recombinant human TGFβ1; experiment: BIACore, scFv
Description: as §4

Mouse anti-TGFβ1,2,3 monoclonal antibody from Genzyme
TF1 cell proliferation assay IC50 (nM IgG) (recombinant human TGFβ2 [1]): 10 nM
IC50 (recombinant human TGFβ2 [2]): 0.5 nM
TF1 cell proliferation assay IC50 (nM IgG) (recombinant human TGFβ1 [3]): 1.5 nM
TF1 cell proliferation assay IC50 (nM IgG) (TGFβ3 [4]): 0.1 nM
IC50 (recombinant human TGFβ1 [5]): 0.55 nM
IC50 (TGFβ3 [6]): 0.03 nM

B1: 6B1 scFv (scFv)
scFv: EVQLVESGGGVVQPGRSLRLSCAASGFTFSSYGMHWVRQAPGKGLEWVAVIWYDGSNKYYADSVKGRFTISRDNSKNTLYLQMDSLRAEDTAVYYCGRTLESSLWGQGTLVTVSSGGGGSGGGGSGGGGSSSELTQDPAVSVALGQTVRITCQGDSLRSYYASWYQQKPGQAPVLVIYGKNNRPSGIPDRFSGSSSGNTASLTITGAQAEDEADYYCNSRDSSSTHRGVFGGGTKLTVLG
notes: also called 6B1 single chain Fv
I.C.50 in TF1 assay (neutralisation of TGFβ2 inhibition of TF1 cell proliferation) (recombinant human TGFβ2 [7]): 15 nM
koff (recombinant human TGFβ2 [8]): 0.000668 s⁻¹
kon (recombinant human TGFβ2 [8]): 287000 M⁻¹ s⁻¹
Kd (recombinant human TGFβ2 [9]): 2.32 nM
koff (recombinant human TGFβ2 [10]): 0.0006 s⁻¹
IC50 (recombinant human TGFβ2 [11]): 0.3 nM

B2: 6A5 IgG4 (antibody, V domains shown)
VH: EVQLVESGGGVVQPGRSLRLSCAASGFTFSSYGMHWVRQAPGKGLEWVAVIWYDGSNKYYADSVKGRFTISRDNSKNTLYLQMDSLRAEDTAVYYCGRTLESSLWGQGTLVTVSS
VL: SSELTQDPAVSVALGQTVRITCQGDSLRSYYASWYQQKPGQAPVLVIYGKNNRPSGIPDRFAGSNSGNTASLTITGAQAEDEADYYCSSRDSSGNHVVFGGGTKLTVLG
notes: Whole antibody: human gamma 4 and human lambda constant regions (pG4D100, pLN10), CHO cells
I.C.50 in TF1 assay (neutralisation of TGFβ2 inhibition of TF1 cell proliferation) (recombinant human TGFβ2 [7]): 150 nM
IC50 (recombinant human TGFβ2 [11]): ~6 nM
binding result (hen egg lysozyme): no binding
binding result [12]: no binding
binding result (human insulin): no binding
binding result (bovine serum albumin): no binding
binding result (human serum albumin): no binding
binding result (human lymphotoxin (TNFβ)): no binding
binding result (ovalbumin): no binding
binding result [13]: no binding

B3: CS37 scFv (scFv)
scFv: QVQLVQSGGGVVQPGRSLRLSCAASGFTFSSYGMHWVRQAPGKGLEWVAVISYDGSIKYYADSVKGRFTISRDNSKNTLYLQMNSLRAEDTAVYYCARTGEYSGYDTSGVELWGQGTTVTVSSGGGGSGGGGSGGGGSEIVLTQSPSSLSASVGDRVTITCRASQGIGDDLGWYQQKPGKAPILLIYGTSTLQSGVPSRFSGSGSGTDFTLTINSLQPEDFATYYCLQDSNYPLTFGGGTRLEIKR
IC50 (recombinant human TGFβ1 [14]): ~8 nM

B4: CS32 scFv (scFv)
scFv: QVQLVQSGGGVVQPGRSLRLSCAASGFTFSSYGMHWVRQAPGKGLEWVAVISYDGSIKYYADSVKGRFTISRDNSKNTLYLQMNSLRAEDTAVYYCARTGEYSGYDTSGVELWGQGTTVTVSSGGGGSGGGGSGGGGSDIVMTQSPDSLAVSLGERATINCKSSQSLLYSYNKMNYLAWYQQKPGQPPKLLINWASTRESGVPDRFSGSGSGTDFTLTISSLQAEDVAVYYCQQYYATPLTFGHGTKVEIKR
IC50 (recombinant human TGFβ1 [14]): 40 nM
IC50 (recombinant human TGFβ1 [15]): 4.5 nM
koff (recombinant human TGFβ1 [16]): 0.0012 s⁻¹
